This experiment addresses gp120 prebound to sCD4 (HIV-1, subtype B, strain YU2 | human) (UniProt P35961). In words: ITC. Background: Isothermal titration calorimetry measures the heat released or taken up as one component is titrated into another.

With “S22 peptide, 22 amino acid tyrosine-sulfated peptide corresponding to the CCR5 N-terminus (from UniProt P51681 1-22)”, the Kd was found to be 2200 nM.

Usually Kd stands for a measure of binding affinity in units of concentration. Low readings indicate tighter binding, high ones weaker binding.

The record behind these values is paper PMC2700308.
